# Measured values: the supplement of paper PMC9170038
# Test system: MS2 coat protein
# Test: apparent KD of MS2 coat protein; designed switch direction (-1 OFF switch, 1 ON switch): 1; higher = weaker reporter binding
# Method in brief: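 For each design, the apparent KD is the median over clusters of curves fitted to normalised cluster fluorescence. Clusters held RNA switches with common flanks, transcribed on Illumina chips by stalled E. coli RNA polymerase. These were titrated with SNAP-549-labelled MS2 coat protein, doubling from 0.7 or 1.5 nM to 3 µM, without input, with 200 uM small-molecule ligand, or with an oligonucleotide input.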
# [1] = input ligand: microRNA oligo, concentration not stated
Sequence,apparent KD of MS2 coat protein (input ligand: FMN 200 uM),apparent KD of MS2 coat protein [1],apparent KD of MS2 coat protein (input ligand: none),"apparent KD of MS2 coat protein (Eterna round: R95, input ligand: FMN 200 uM)","apparent KD of MS2 coat protein (Eterna round: R95, input ligand: microRNA oligo, concentration not stated)","apparent KD of MS2 coat protein (Eterna round: R95, input ligand: none)"
"GUAGCAGGCACAGGAUAUGUUGACCAGGGAGUACAUGAGGAUCACCCAUGUCCGACACACCGGCAAUAGAAGGGUGAGUGGCAG [Eternabot solution 17] (Eterna round: R96, puzzle: Same State NG 2)",35.8 nM,44.9 nM,78.1 nM,–,–,–
"GUAGCAUACCGAGGAUAUUCACAUGAGGAUCACCCAUGUAUUAAUAGGCCACAUUAGUGGCCUUGGGAGAAGGCGGAAUGCUAC [Xeonanis - 20 Mod48] (Eterna round: R96, puzzle: Same State NG 2)",10.8 nM,11 nM,14.6 nM,–,–,–
"GUAGCAUACCGAGGAUAUUCAUAUAAUAAAUACAUGAGGAUCACCCAUGUAAGGCGAAAGCCUUGGGAGAAGGCGGAAUGCUAC [Xeonanis - 20 Mod59] (Eterna round: R96, puzzle: Same State NG 2)",12.6 nM,31.9 nM,36.3 nM,–,–,–
"GUAGCAUACCGAGGAUAUUCAUAUAAUAAAUACAUGAGGAUCACCCAUGUUAGGCGAAAGCCUUGGGAGAAGGCGGAAUGCUAC [Xeonanis - 20 Mod58] (Eterna round: R96, puzzle: Same State NG 2)",14.4 nM,35.8 nM,44.8 nM,–,–,–
"GUAGCAUACCGAGGAUAUUCAUAUAAUAUACAUGAGGAUCACCCAUGUUAUAGGCGAAAGCCUUGGGAGAAGGCGGAAUGCUAC [Xeonanis - 20 Mod62] (Eterna round: R96, puzzle: Same State NG 2)",8.73 nM,15.3 nM,14.9 nM,–,–,–
"GUAGCAUACCGAGGAUAUUCAUAUUAAACAUGAGGAUCACCCAUGUAUUAGGCCAAAAGGCCUUGGGAGAAGGCGGAAUGCUAC [Xeonanis - 20 Mod5] (Eterna round: R96, puzzle: Same State NG 2)",24.6 nM,28.3 nM,48.3 nM,–,–,–
"GUAGCAUACCGAGGAUAUUCAUAUUACAUGAGGAUCACCCAUGUUUUAGGCCGAUUACGGCCUUGGGAGAAGGCGGAAUGCUAC [Xeonanis - 20 Mod23] (Eterna round: R96, puzzle: Same State NG 2)",13.8 nM,20.1 nM,28.8 nM,–,–,–
GUAGCAUGCAGGCAGGAUAUUCAUAUUAAAACAUGAGGAUCACCCAUGUAGGCCAGAAGGCCUUGGGAGAAGGGCCACAUGCUAC [Xeonanis - 17] (puzzle: Same State 2),–,–,–,36.9 nM,595 nM,800 nM
"GUCAGCGAUUGAGGAUAUCACGUCGAUUAGACGUGAGAAGGCGAUCAUAACAUGAGGAUCACCCAUGUAUUACAUGAAGCUGAC [SSNG1/5-A2] (Eterna round: R96, puzzle: Same State NG 1)",19.6 nM,17.5 nM,27.1 nM,–,–,–
"GUCCAAAACACAGGAUAUCCCAGUCAUGAACUGGGAGAAGGGUGGCCACAUGAGGAUCACCCAUGUGAAGUGCGAGAGGCACGA [Arquarais] (Eterna round: R96, puzzle: Same State NG 1)",253 nM,595 nM,937 nM,–,–,–
"GUCCGUAUCACAGGAUAUCCUAGUCAUGAUCUAGGAGAAGGGUGGCCACAUGAGGAUCACCCAUGUGAAGUGCCAGAGGCACGA [MOD2 Xexeraed] (Eterna round: R96, puzzle: Same State NG 1)",687 nM,64.8 nM,149 nM,–,–,–
"GUGCUCGUGUGAGGAUAUGUUGCCGGGUCGGCUGCAGAAGGUACUAUUAUACAUGAGGAUCACCCAUGUCGCUUUUCUCCGGUA [salish99_SSNG1_r04_921] (Eterna round: R96, puzzle: Same State NG 1)",88 nM,49.6 nM,73.5 nM,–,–,–
"GUGGAGGGUUGAGGAUAUUGGUUGCAUAUGUUUAACAUGAGGAUCACCCAUGUGGGUUGCGGUUUCGAGAAGGUAGGUUGCUGG [salish99_SSNG2_r04_043] (Eterna round: R96, puzzle: Same State NG 2)",90.8 nM,82.2 nM,75.2 nM,–,–,–
"GUGGUCAGACAUGAGGAUCACCCAUGUGGAAUAAAUAAGGACUAGGAUAUGGAAUAUAGGAUAUACCAGAAGGAGUGGUUGGUG (Eterna round: R96, puzzle: Same State NG 3)",–,36.5 nM,–,–,–,–
"GUGGUCAGACAUGAGGAUCACCCAUGUGGAAUAAAUAAGGACUAGGAUAUUUAAUAUAGGAUAUAAAAGAAGGAGUGGUUGGUG (Eterna round: R96, puzzle: Same State NG 3)",85.1 nM,44.1 nM,59.6 nM,–,–,–
